Target: latent myostatin (human, UniProt O14793 24-266; O14793 267-375)
Test: cell-based or functional assay

B1: Apitegromab (antibody, human IgG4 S228P, lambda, V domains shown)
VH: QVQLVESGGGVVQPGRSLRLSCAASGFTFSSYGMHWVRQAPGKGLEWVAVISYDGSNKYYADSVKGRFTISRDNSKNTLYLQMNSLRAEDTAVYYCARDLLVRFLEWSHYYGMDVWGQGTTVTVSS
VL: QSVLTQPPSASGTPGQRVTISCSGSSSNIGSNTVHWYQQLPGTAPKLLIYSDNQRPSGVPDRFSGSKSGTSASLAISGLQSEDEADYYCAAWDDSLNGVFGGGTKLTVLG
target engagement, as measured by latent myostatin (serum level after treatment vs baseline; 2 mg/kg and 20 mg/kg IV every 4 weeks): 100 fold
